Kd data for 1 substance are collected here from paper PMC6411775.

“And” between values parts separate entries of the source, which are not always exact repeats. Equal values may be shown once.

For this test, the target named is full length human histone 3 lysine 4 demethylase KDM5B, His6 tag cleaved (human) (UniProt Q9UGL1). The test is described as follows: SPR; KDM5B immobilised by amine coupling (490 RU and 975 RU); NCPs injected in eight concentrations (two-fold dilutions from 250 nM); 15 °C; 20 mM Hepes, 300 mM NaCl, 1 mM EDTA, 0.005% Tween 20, 1 mM DTT; steady state, 1:1 model; apparent.
Chain of UniProt Q9UGL1 (Q9UGL1 whole entry): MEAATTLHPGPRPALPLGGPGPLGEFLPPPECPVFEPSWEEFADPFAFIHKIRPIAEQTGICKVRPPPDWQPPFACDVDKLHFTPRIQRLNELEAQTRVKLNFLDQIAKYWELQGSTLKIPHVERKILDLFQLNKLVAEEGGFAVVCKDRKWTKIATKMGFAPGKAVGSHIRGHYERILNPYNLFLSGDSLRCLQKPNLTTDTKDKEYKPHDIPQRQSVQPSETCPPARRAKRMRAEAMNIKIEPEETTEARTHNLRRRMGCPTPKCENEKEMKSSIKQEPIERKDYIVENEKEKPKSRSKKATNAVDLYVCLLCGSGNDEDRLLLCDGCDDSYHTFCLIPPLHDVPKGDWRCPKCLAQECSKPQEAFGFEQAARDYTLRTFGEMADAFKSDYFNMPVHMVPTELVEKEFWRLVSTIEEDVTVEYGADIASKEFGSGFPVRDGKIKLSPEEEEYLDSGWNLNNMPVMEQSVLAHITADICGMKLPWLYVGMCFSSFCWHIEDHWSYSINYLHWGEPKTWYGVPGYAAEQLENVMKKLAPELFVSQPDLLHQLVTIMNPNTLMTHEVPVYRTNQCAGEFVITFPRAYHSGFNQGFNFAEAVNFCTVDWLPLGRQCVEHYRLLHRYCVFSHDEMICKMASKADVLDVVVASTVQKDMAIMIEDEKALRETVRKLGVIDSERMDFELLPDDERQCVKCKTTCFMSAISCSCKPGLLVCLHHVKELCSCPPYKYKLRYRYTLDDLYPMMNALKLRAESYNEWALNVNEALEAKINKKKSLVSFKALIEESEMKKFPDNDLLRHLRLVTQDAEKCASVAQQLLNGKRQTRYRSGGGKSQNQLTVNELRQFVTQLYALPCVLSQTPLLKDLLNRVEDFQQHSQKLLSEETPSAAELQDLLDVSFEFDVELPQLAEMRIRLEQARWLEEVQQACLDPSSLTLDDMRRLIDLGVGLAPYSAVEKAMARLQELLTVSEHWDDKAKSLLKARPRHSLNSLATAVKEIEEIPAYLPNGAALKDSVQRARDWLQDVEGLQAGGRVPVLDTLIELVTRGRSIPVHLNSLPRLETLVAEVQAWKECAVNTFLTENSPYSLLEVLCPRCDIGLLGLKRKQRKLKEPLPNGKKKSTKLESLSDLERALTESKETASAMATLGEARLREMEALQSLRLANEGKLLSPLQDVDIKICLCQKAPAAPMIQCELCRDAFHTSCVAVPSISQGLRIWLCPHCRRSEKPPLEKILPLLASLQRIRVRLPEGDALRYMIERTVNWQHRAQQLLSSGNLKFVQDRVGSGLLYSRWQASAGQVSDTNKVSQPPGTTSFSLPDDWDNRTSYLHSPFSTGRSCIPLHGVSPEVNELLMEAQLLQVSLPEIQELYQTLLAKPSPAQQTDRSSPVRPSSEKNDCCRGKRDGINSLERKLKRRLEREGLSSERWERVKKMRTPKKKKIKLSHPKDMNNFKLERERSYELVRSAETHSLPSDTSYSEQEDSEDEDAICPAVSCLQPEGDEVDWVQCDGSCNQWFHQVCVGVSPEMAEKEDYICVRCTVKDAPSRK

Consider “Nucleosome core particles (NCPs), recombinant Xenopus laevis histone octamer on the Widom 601 DNA (complex)”, for which the Kd is 20.3 nM and 27.7 nM.
